The results in this text go back to IntAct's records for PubMed 22382979.

B1: Proliferating cell nuclear antigen (Saccharomyces cerevisiae), P15873 (parent)
chain: MLEAKFEEASLFKRIIDGFKDCVQLVNFQCKEDGIIAQAVDDSRVLLVSLEIGVEAFQEYRCDHPVTLGMDLTSLSKILRCGNNTDTLTLIADNTPDSIILLFEDTKKDRIAEYSLKLMDIDADFLKIEELQYDSTLSLPSSEFSKIVRDLSQLSDSINIMITKETIKFVADGDIGSGSVIIKPFVDMEHPETSIKLEMDQPVDLTFGAKYLLDIIKGSSLSDRVGIRLSSEAPALFQFDLKSGFLQFFLAPKFNDEE
partner: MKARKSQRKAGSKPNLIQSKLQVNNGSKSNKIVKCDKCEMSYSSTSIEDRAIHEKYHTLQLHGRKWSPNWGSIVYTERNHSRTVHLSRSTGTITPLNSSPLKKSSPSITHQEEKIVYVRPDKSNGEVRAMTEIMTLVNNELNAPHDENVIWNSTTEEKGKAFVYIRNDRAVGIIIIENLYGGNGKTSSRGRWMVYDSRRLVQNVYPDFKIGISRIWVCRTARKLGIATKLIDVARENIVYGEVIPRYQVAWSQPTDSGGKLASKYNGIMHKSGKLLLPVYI
B2: Proliferating cell nuclear antigen (Saccharomyces cerevisiae), P15873 (parent)
chain: B1 chain
B3: ATP-dependent DNA helicase SRS2 (Saccharomyces cerevisiae), P12954 (parent)
chain: MSSNNDLWLHLVSQLNTQQRAAALFDYTRGLQVIAGPGTGKTKVLTSRVAYLILHHHIHPRDIIVTTFTNKAANEMKERLQEMLRGAGVNISELLIGTFHSICLKILYRFGHLVDLQKDWRIIDEKEIDVILDDMIEKVPDQIRDYASSITRKVNLCMPSKNGDEWTIHPKLIKKQISKLKSNAILPEEYILDSNHDAALGYFYQIYQSELSKKNTLDFDDLLMYTFRLLTRVRVLSNIKHVLVDEFQDTNGIQLDLMFLFAKGNHHLSRGMTIVGDPDQSIYAFRNALAHNFLEMGRKCPIEYSTIILVENYRSSQKILNTSEILITQQNKGRQNRAPLRAQFDLDFPPVYMNFPAYFLEAPSLVRELLYLKALPNLFTFNDFAILVRQRRQIKRIESALIEHRIPYKIIRGHSFWDSKETRAMLNLLKLIFSPNDKHAILASLLYPARGLGPATGEKIKNALDTLATDVSCFQILKDISSKKIMLDIPTKGRSVIADFISMIENCQLLLQSTLLGGLSDLFDKLYELSGLKYEYLYKDGKKKNDQLEKSEPNLLNARHKNIELLKNYFLALLSKSESSDKEKNEAIKAATDEAEPIENKVITPKEYLRNFFNSLSLHSDAAEEEESESNKDAKIKREKNGFVTISTIHGAKGLEWPVVFIPGCEEGIIPCVFNDDKKDESEEDEEEDQENSKKDASPKKTRVLSVEDSIDEERRMFFVAQTRAKYLLYLSNTVTVEDVDRPRIASRFLTTDLIKAMSDSQKLFESTNSIKKLYRILNKKPPAEDDKLFSLDQLRKDYNQFIENRRERMIWQGIQMNDVYGIQLSRNKLLGSVSDFTSAADQLRLETQNSIFPQKKLIEKSRPSKINGNYAPKSRVKSPEKRYAPETTSFHSPTKKKVYAPQYVSTTNVPSRQEFHSSTGKNIPFLRREDRSITDISPRSSTRSLKGASPNKTSHMSDDLMRPSPTRKDKVTRNIHFATAGTFRIETQSNVDELHPPEYSNKSGQSLTSSEFSGFSSACSNSDQPTNLIEDINNELDLSDEELLNDISIERRRELLGSKKTKKIKPKTRNRKSKRGDKVKVEEVIDLKSEFEEDDSRNTTAAELLHNPDDTTVDNRPIISNAKFLADAAMKKTQKFSKKVKNEPASSQMDIFSQLSRAKKKSKLNNGEIIVID

The first assay covers variants of B1. As to conditions: with eco1_yeast ECO1, P43605.
Consider F125A;L126A;K127A;I128A, for which the “effect of a mutation on the interaction” value was “decreasing interaction”.

In a further assay the parent is B2. Conditions: with srs2_yeast SRS2, P12954.
For F125A;L126A;K127A;I128A, the “effect of a mutation on the interaction” value is “decreasing interaction”.

Variants of B3 are the subject of a further assay. As to conditions: with pcna_yeast POL30, P15873.
Turning to D1151A, the “effect of a mutation on the interaction” value is reported as “decreasing interaction”.

Take F1153A: the “effect of a mutation on the interaction” value is listed as “decreasing interaction”.

As to I1152A;L1156A, the “effect of a mutation on the interaction” value is reported as “decreasing interaction”.

Turning to Q1149E, the “effect of a mutation on the interaction” value is reported as “decreasing interaction”.

For Q1155E, the “effect of a mutation on the interaction” value is recorded as “decreasing interaction”.

As for I1152A, the “effect of a mutation on the interaction” value is “decreasing interaction”.

In the case of Q1149E;I1152A, the “effect of a mutation on the interaction” value was “decreasing interaction”.

L1156A: the “effect of a mutation on the interaction” value was “decreasing interaction”.

The variants in the next assay derive from B3. As to conditions: with smt3_yeast SMT3, Q12306.
Sequence of smt3_yeast SMT3, Q12306 (Q12306 whole entry): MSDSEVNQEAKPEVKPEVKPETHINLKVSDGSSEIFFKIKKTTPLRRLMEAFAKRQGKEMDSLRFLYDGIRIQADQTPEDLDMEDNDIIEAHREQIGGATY
As to I1152A;L1156A, the “effect of a mutation on the interaction” value is given as “decreasing interaction”.

Take I1152A: the “effect of a mutation on the interaction” value is “decreasing interaction”.

As for Q1149E;I1152A, the “effect of a mutation on the interaction” value is given as “decreasing interaction”.

With L1156A, the “effect of a mutation on the interaction” value is listed as “decreasing interaction”.
